Reference: publication PMC2665062 (The Journal of Biological Chemistry, 2009)

What was measured:
crystal structure = biological target: the molecule itself; experiment: crystal structure
histone H4 (calf thymus) = histone H4 (calf thymus) (calf, UniProt P62803 1-103); experiment: ELISA

Binder | binding result (crystal structure) | binding result (histone H4 (calf thymus))
Plasmodium falciparum nucleosome assembly protein PfNapL, wild type (natural protein, UniProt Q8I608 1-347, looked up) MAANEGNQPIPPEEEKEISSLLESIKIDDDKMTDLTEEQKETLKKLKLYQKEYYDYESKFEYELFLLRQKYHDLYGPIYDKRREALVGNGEAKIGTPNLPEFWLRALRNNNTVSHVIEDHDEEILVYLNDIRCDYIKKNKEKKEGFILSFYFATNPFFSNSVLTKTYHMKCVDCDNEPVLLHTEATVIDWYDNKNILKKNVVKKQHNKNSREVKTVQQTVNRDSFFHFFTSHKVPNSNVIKQLSKHEVAQLEMIIEGDYEVALTIKERIIPYAVDYYLGIIIESESNSIVSDVDSSYSSSENNSNYNSYESNNSAYNDENSNVDTNEYDDNEEEEEGAKSNEDPLTS | binds | binds
PfNapL Y259A (natural protein) MAANEGNQPIPPEEEKEISSLLESIKIDDDKMTDLTEEQKETLKKLKLYQKEYYDYESKFEYELFLLRQKYHDLYGPIYDKRREALVGNGEAKIGTPNLPEFWLRALRNNNTVSHVIEDHDEEILVYLNDIRCDYIKKNKEKKEGFILSFYFATNPFFSNSVLTKTYHMKCVDCDNEPVLLHTEATVIDWYDNKNILKKNVVKKQHNKNSREVKTVQQTVNRDSFFHFFTSHKVPNSNVIKQLSKHEVAQLEMIIEGDAEVALTIKERIIPYAVDYYLGIIIESESNSIVSDVDSSYSSSENNSNYNSYESNNSAYNDENSNVDTNEYDDNEEEEEGAKSNEDPLTS | – | binds
PfNapL T230A (natural protein) MAANEGNQPIPPEEEKEISSLLESIKIDDDKMTDLTEEQKETLKKLKLYQKEYYDYESKFEYELFLLRQKYHDLYGPIYDKRREALVGNGEAKIGTPNLPEFWLRALRNNNTVSHVIEDHDEEILVYLNDIRCDYIKKNKEKKEGFILSFYFATNPFFSNSVLTKTYHMKCVDCDNEPVLLHTEATVIDWYDNKNILKKNVVKKQHNKNSREVKTVQQTVNRDSFFHFFASHKVPNSNVIKQLSKHEVAQLEMIIEGDYEVALTIKERIIPYAVDYYLGIIIESESNSIVSDVDSSYSSSENNSNYNSYESNNSAYNDENSNVDTNEYDDNEEEEEGAKSNEDPLTS | – | binds
PfNapL H227A (natural protein) MAANEGNQPIPPEEEKEISSLLESIKIDDDKMTDLTEEQKETLKKLKLYQKEYYDYESKFEYELFLLRQKYHDLYGPIYDKRREALVGNGEAKIGTPNLPEFWLRALRNNNTVSHVIEDHDEEILVYLNDIRCDYIKKNKEKKEGFILSFYFATNPFFSNSVLTKTYHMKCVDCDNEPVLLHTEATVIDWYDNKNILKKNVVKKQHNKNSREVKTVQQTVNRDSFFAFFTSHKVPNSNVIKQLSKHEVAQLEMIIEGDYEVALTIKERIIPYAVDYYLGIIIESESNSIVSDVDSSYSSSENNSNYNSYESNNSAYNDENSNVDTNEYDDNEEEEEGAKSNEDPLTS | – | binds
PfNapL D192A (natural protein) MAANEGNQPIPPEEEKEISSLLESIKIDDDKMTDLTEEQKETLKKLKLYQKEYYDYESKFEYELFLLRQKYHDLYGPIYDKRREALVGNGEAKIGTPNLPEFWLRALRNNNTVSHVIEDHDEEILVYLNDIRCDYIKKNKEKKEGFILSFYFATNPFFSNSVLTKTYHMKCVDCDNEPVLLHTEATVIDWYANKNILKKNVVKKQHNKNSREVKTVQQTVNRDSFFHFFTSHKVPNSNVIKQLSKHEVAQLEMIIEGDYEVALTIKERIIPYAVDYYLGIIIESESNSIVSDVDSSYSSSENNSNYNSYESNNSAYNDENSNVDTNEYDDNEEEEEGAKSNEDPLTS | – | binds
PfNapL E260A (natural protein) MAANEGNQPIPPEEEKEISSLLESIKIDDDKMTDLTEEQKETLKKLKLYQKEYYDYESKFEYELFLLRQKYHDLYGPIYDKRREALVGNGEAKIGTPNLPEFWLRALRNNNTVSHVIEDHDEEILVYLNDIRCDYIKKNKEKKEGFILSFYFATNPFFSNSVLTKTYHMKCVDCDNEPVLLHTEATVIDWYDNKNILKKNVVKKQHNKNSREVKTVQQTVNRDSFFHFFTSHKVPNSNVIKQLSKHEVAQLEMIIEGDYAVALTIKERIIPYAVDYYLGIIIESESNSIVSDVDSSYSSSENNSNYNSYESNNSAYNDENSNVDTNEYDDNEEEEEGAKSNEDPLTS | – | binds
PfNapL K266A (natural protein) MAANEGNQPIPPEEEKEISSLLESIKIDDDKMTDLTEEQKETLKKLKLYQKEYYDYESKFEYELFLLRQKYHDLYGPIYDKRREALVGNGEAKIGTPNLPEFWLRALRNNNTVSHVIEDHDEEILVYLNDIRCDYIKKNKEKKEGFILSFYFATNPFFSNSVLTKTYHMKCVDCDNEPVLLHTEATVIDWYDNKNILKKNVVKKQHNKNSREVKTVQQTVNRDSFFHFFTSHKVPNSNVIKQLSKHEVAQLEMIIEGDYEVALTIAERIIPYAVDYYLGIIIESESNSIVSDVDSSYSSSENNSNYNSYESNNSAYNDENSNVDTNEYDDNEEEEEGAKSNEDPLTS | – | binds
